In the nanobody polyreactivity screen of Harvey et al. (2022):

Test: yeast display, Sf9 membrane polyspecificity reagent, FACS + sequencing; frameworks hold sequencing errors
Procedure, shortened: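 A synthetic nanobody library was expressed on Saccharomyces cerevisiae BJ5465 by galactose induction for 36–48 hours. The library was stained for 1 hour at 4 °C with 10% biotinylated, detergent-solubilized Sf9 membrane reagent and enriched with streptavidin microbeads before FACS. Low and high (top ~1%) gates were set on anti-HA fluorescence for expression and streptavidin fluorescence for reagent binding, and each polyreactivity label reflects the gate of origin.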

Sequence	polyreactivity (PSR sort gate)
QVQLVESGGGLVQAGGSLRLSCAASGSTFFVANAMGWYRQSPGKERELVAAISPSGGSTYYADSVKGRFTISRDNAKNTVYLQMNSLKPEDTAVYYCATSVRRFTRRYDYWGQGTQVTVSS	high polyreactivity
QVQLVESGGGLVQAGGSLRLSCAASGSTFFWYAMGRYRQAPGKERELVAAISKTGGSTYYADSVKGRFTISRDNAKNTFYLQMNSLKPEDTAVYYCNAVPYASKAARSFDYWGQGTQVTVSS	low polyreactivity
QVQLVESGGGLVQAGGSLRLSCAASGSTFFWYGMGWYRQAPGKERELVAAISSDGSTYYADSVKGRFTISRDNAKNTVYLQMNSLKPEDTAVYYCAAQIPWYIYPGSYTMDYWGQGTQVTVSS	low polyreactivity
QVQLVESGGGLVQAGGSLRLSCAASGSTFFYNAMGWYRQAPGKERELVAAMSLSGGSITYYADSVKGRFTISRDNANNTVYLQMNSLKPEDTAVYYCAADSQATSYGLDYWGQGTQVTVSS	low polyreactivity
QVQLVESGGGLVQAGGSLRLSCAASGSTFFYNAMGWYRQAPGKERELVASINDRAGRTYYADSVKGRFTISRDNAKNTVYLQMNSLKPEDTAVYYCAAEPWYKFDYDYWGQGTQVTVSS	low polyreactivity
QVQLVESGGGLVQAGGSLRLSCAASGSTFFYYAMGWYRKAPGKERDFVAAISKSGGRTYYADTVKGRFTISRDNAKNTVYLQMNSLKPEDTAVYYCAAYYEYRRDYWGQCTQVTVSS	high polyreactivity
QVQLVESGGGLVQAGGSLRLSCAASGSTFFYYTMGWYRQAPGKERELVAAISRGGRTNYADSVKGRFTISRDNAKNTVYLLMNSLKREDTAVFYCIADAWSFRQYWGRYDYWGQGTQVTVSS	high polyreactivity
QVQLVESGGGLVQAGGSLRLSCAASGSTFGANALGWYRQAPGKERELVAAITGGSTFYADSVKGRFTISRDNAKNTVYLQMNSLKPEDTSVYYCAVDYTYSYVDYWSEYDYWGQGTQVTVSS	low polyreactivity
QVQLVESGGGLVQAGGSLRLSCAASGSTFGANAMGWYRQAPGKEREFVAAISRSGVRTYYADSVKGRFTISRDNAKNTVYLKLNSLKPEDTAVYYCAADGYWWTYTRYDYWGQGTQVTVSS	low polyreactivity
QVQLVESGGGLVQAGGSLRLSCAASGSTFGANAMGWYRQAPGKEREFVAAISRSGVRTYYADSVKGRFTISRDNAKNTVYLQMNSLKPEDTAVYYCAADGYWWTYKGQYDYWGQGTQVTVSS	low polyreactivity
QVQLVESGGGLVQAGGSLRLSCAASGSTFGANPMGWYRQAPGKEREFVAAISGSGTTTYYADSVKGRFTISRDNAKNTVYLQMNSLKTEDTAVYYCAKTRKAHWLEYWGQGTQVTVSS	low polyreactivity
QVQLVESGGGLVQAGGSLRLSCAASGSTFGDNAMGWYRQAPGKERELVAVITSDTSTYYADSVKGRFTISRDNAKNTVYLQMNSLKPEDTAVYYCAADWGGLWFWYEYWGQGTQVTVSS	low polyreactivity
QVQLVESGGGLVQAGGSLRLSCAASGSTFGDNAMVWYRQAPGKERELVAAITFRDGITYYADSVKGRITISRDNAKNSVYLQMNSLKPEDTAFYYCAKGVHRRWYYGYGYWGQGTQVTVSS	high polyreactivity
QVQLVESGGGLVQAGGSLRLSCAASGSTFGDNTMGWYRQAPGKERELVASISKSGGSTYYADSVKGRFTISRDNAKNTVYLQMNSLKPEDTAVYYCNRVTHYIRFDYWGQGTQVTVSS	low polyreactivity
QVQLVESGGGLVQAGGSLRLSCAASGSTFGDYAMGWYRQAPGKERELVAAMSRGGSTYYADSVKGRFTISRDNAKNTVYLQMNSLKPEDTAVYYCNKDEGYSASPDGSTFDYWGQGTQVTVSS	low polyreactivity
QVQLVESGGGLVQAGGSLRLSCAASGSTFGEYAMGWYRQAPGKERELVASITFSAGSTDYADSVKGRFTISRDNAKNTVFLQMNSLKPEDTSVYYCAADGWWPWEYEYWGQGTQVTVSS	low polyreactivity
QVQLVESGGGLVQAGGSLRLSCAASGSTFGFNAMGWYRQAPGKERELLPLFWSGGSTYYADSVKGRFTISRDNAKNTVYLQMNSLKPEDTAVYYCNKDSPPITRYDYWGQGTQVTVSS	low polyreactivity
QVQLVESGGGLVQAGGSLRLSCAASGSTFGFYAMGWYRQAPGKERELVAAISGRGGSTYYADSVKGRFTISRDNAKNTVYLQMNSLKPEDTAVYYCNADWQDDLAGYVVDYWGLGTQVTVSS	low polyreactivity
QVQLVESGGGLVQAGGSLRLSCAASGSTFGFYAMGWYRQAPGKERELVAAISWNDGSTYYADSVKGRFTISRDNAKNTVYLQMNSLKPEDTAVYYCATEYSLWYTRDWQRYEYWGQGTQVTVSS	high polyreactivity
QVQLVESGGGLVQAGGSLRLSCAASGSTFGGNAMGWYRQAPGKERELVAAISSSGGSTYYADSVKGRFTISRDNAKNTVYLLMNSLKPEDTAVYYCNADDGYGQVHSISTYEMDYWGQGTQVTVSS	low polyreactivity
QVQLVESGGGLVQAGGSLRLSCAASGSTFGGNAMGWYRQAPGKERELVAAISSSGGSTYYADSVKGRFTISRDNAKYTVYLQMNSLKPEDSAVYYCAALYHWTYDYWGLGTQVTVSS	low polyreactivity
QVQLVESGGGLVQAGGSLRLSCAASGSTFGGNAMGWYRQAPGKERELVAVISKRGGSTYYADSVKGRFTISRDNAKNTVYLQMNSLKPEDTAVYYCAAGYFIRTRSRYRYDYWGQGTQVTVSS	high polyreactivity

Sequence	polyreactivity (PSR sort gate)
QVQLVESGGGLVQAGGSLRLSCAASGSTFGGYAKGWYRQAPGKERELVAAMSQSGTRTYYADSVKGRFTISRDKAKNTVYLQMNSLKPEDTAVYYCAAEKRFRKYDNWGQGTQVTVSS	high polyreactivity
QVQLVESGGGLVQAGGSLRLSCAASGSTFGGYAMGWYRQAPGKERELVAAISSGGSTYYADSVKGRFTISRDNAKNTVYLQMNSLKPEDTAVYYCAAEGIYFILWYGYVEYDYWGQGTQVTVSS	low polyreactivity
QVQLVESGGGLVQAGGSLRLSCAASGSTFGGYTMGWYRQAPGKERELVAAITSRGGTTYYADSVKGRFTISRDNAKNTVYLQMNSLKPEDTAVYYCNRVSRYFYGFYWGQGTQVTVSS	high polyreactivity
QVQLVESGGGLVQAGGSLRLSCAASGSTFGHYARGWYRQATGKERELVAAISFTGARTYYADSVKGRFTISRDNAKNTVYLQMNSLKPEDTAVYYCIARGDYRISDYWGQGTQVTVSS	high polyreactivity
QVQLVESGGGLVQAGGSLRLSCAASGSTFGINAMGWYRQAPGKERELVASITRRGGSTYYADSVKGRFTISRDNAKNTVYLRMNSLKPEDTAVYYCNKTYRYGTPLYDYWGQGTQVTVSS	high polyreactivity
QVQLVESGGGLVQAGGSLRLSCAASGSTFGINAMGWYRQAPGKERELVAVIRAGGGRTYYADSVKGRFTISRDNAKNTVYLQMNSLKPEDTAVYYCAARYYSRYVSVYASSKTGYDYWGQGTQVTVSS	high polyreactivity
QVQLVESGGGLVQAGGSLRLSCAASGSTFGIYSMGWYRQAPGKERELVAAISVRGGRTYYADSVKGRFTISRDNAKNTVYLQMNSLKPEDTAVYYCAPTWYWGNDYWGQGTQVTVSS	low polyreactivity
QVQLVESGGGLVQAGGSLRLSCAASGSTFGKYVMGWYRQAPGKERELVAAISRSGGSTYYADSVKGRFTISRDNAKNTVYFQMNSLKPEDTAVYYCATVGYGYDYWGQGTQVTVSS	high polyreactivity
QVQLVESGGGLVQAGGSLRLSCAASGSTFGLYAMGWYRQAPGKEREFVAAISWRTGSTYYADSVKGRFTISRDNAKNTVFLQMYSLKPEDTAVYYCAARAYGTIIHGYWGQGTHVTVSS	high polyreactivity
QVQLVESGGGLVQAGGSLRLSCAASGSTFGLYAMGWYRQAPGKERELVAAISSGGSTYYADSVKGRFTISRDNAKNTVYLQMNSLKPEDTAVYYCATGYWAYTIEYYYWGQGTQVTVSS	low polyreactivity
QVQLVESGGGLVQAGGSLRLSCAASGSTFGLYAMGWYRQAPGKERELVAAITGRASSTYYADSVKGRFTISRDNAKNTVYLQMNSLKPEDTAVYDCAASGFGQISNPRRDYWGQGTQVTVSS	high polyreactivity
QVQLVESGGGLVQAGGSLRLSCAASGSTFGLYARGWYRQAPGKERELVAAISGGRTYYADSVKGRFTISRDNAKNTVYLQMNSLKPEDTAVYYCAADYNYYWGQGTQVTVSS	high polyreactivity
QVQLVESGGGLVQAGGSLRLSCAASGSTFGLYGMGWYRQAPGKERELVAAITYSGGGTYYADSVKGRFTISRDNAKNTVYLQMNSLKPEDTAVYYCAAEYYSSITGWYYYWGQGTQVTVSS	low polyreactivity
QVQLVESGGGLVQAGGSLRLSCAASGSTFGNNAMGWYRQAAGKERELVAGINSGGSTTYADSVKGRFTISRDNAKNTVYLQMNSLKPEDTAVYYCAAVYYYYSWYSKHYYWGQGTQVTVSS	low polyreactivity
QVQLVESGGGLVQAGGSLRLSCAASGSTFGNNAMGWYRQAPGKERELVATIDDTTVSTNYADSVKGRFTISRDNAKNTVYLQMNSLKPEDTAVYYCAADDVDGSPYDYWGQGTQVTVSS	low polyreactivity
QVQLVESGGGLVQAGGSLRLSCAASGSTFGNNAMGWYRQAPGKERELVATIDDTTVSTNYADSVKWRFTISRDNAKNTVYLQMNSLKPEDTAVYYCAAPVGNYGSFDYWGQGTQVTVSS	low polyreactivity
QVQLVESGGGLVQAGGSLRLSCAASGSTFGPNGMGWYRQAPGKERELVARIDRIGGGTYYADSVKGRFTISRDNAKNTVYLQMNSLKPEDTAVYSCAADGPSPFIQGYAKGDYWGQGTQVTVSS	low polyreactivity
QVQLVESGGGLVQAGGSLRLSCAASGSTFGPNTMGWYRQAPGKERELVAAISRAGRTYYADSVKGRFTISRDNAKNTVYLQMNSLKPEDTAVYYCNAGRSYHWRAGGEYDYWGQGTQVTVSS	low polyreactivity
QVQLVESGGGLVQAGGSLRLSCAASGSTFGPYAMAWYRQAPGKERELVAAIDKSGGSTYYADSVKGRFTLSRDNAKNTVYLQMNSLKPEDTAVYYCAADLVRYFGYYDYDSWGQGTQVTVSS	low polyreactivity
QVQLVESGGGLVQAGGSLRLSCAASGSTFGPYAMGWYRPAPGKERELVAAITSSGGTTYYADSVKGRFTISRDNAKNTVYLQMNSLKPEDTAVYYCAVDYYGKVGDDYWGQGTQVTVSS	low polyreactivity
QVQLVESGGGLVQAGGSLRLSCAASGSTFGPYAMGWYRQAPGKERELVAAISRRGTSTYYADSVKGRFTISRDNAKNTVYLQMISLKPEDTAVYYCAADRLLYGGGREYWGQGTQVTVSS	high polyreactivity
